The supplement of paper PMC9112550, “Optimization of the antimicrobial peptide Bac7 by deep mutational scanning” (BMC Biology, 2022)
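Further: peptides expressed intracellularly from a pBAD plasmid library in pooled LB shake-flask culture, induced with 0.3% L-arabinose, DNA abundance read by NGS, three biological replicates, DESeq2 with apeglm shrinkage.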

These sequences were tested on Escherichia coli TOP10 (assay: shrunken log2 fold change of peptide-encoding DNA abundance (4.5 h post-induction vs induction); higher = less antimicrobial activity (less host growth inhibition)). Settings: time post-induction: 4.5 h; library: site-saturation at positions 5, 18, 19, 20.
In the case of RRIRWRPPRLPRPRPRPFHAPRP, the “shrunken log2 fold change” value is reported as 0.0472. In the case of RRIRVRPPRLPRPRPRPFMPPRP, the “shrunken log2 fold change” value is reported as -0.355. In the case of RRIRNRPPRLPRPRPRPNYTPRP, the “shrunken log2 fold change” value is reported as -0.359. RRIRLRPPRLPRPRPRPAPIPRP was tested, and the “shrunken log2 fold change” value was 0.0892. For RRIRKRPPRLPRPRPRPPLMPRP, the “shrunken log2 fold change” value was 0.396. For RRIRTRPPRLPRPRPRPHYEPRP, the “shrunken log2 fold change” value was -0.174. With RRIRQRPPRLPRPRPRPVNKPRP the “shrunken log2 fold change” value was 0.112. For RRIRYRPPRLPRPRPRPQKLPRP, the “shrunken log2 fold change” value was -0.418. RRIRDRPPRLPRPRPRPSILPRP was tested, and the “shrunken log2 fold change” value was 0.202. With RRIRARPPRLPRPRPRPPRTPRP the “shrunken log2 fold change” value was 1.12. With RRIRMRPPRLPRPRPRPIVVPRP the “shrunken log2 fold change” value was 0.0203. With RRIRCRPPRLPRPRPRPDRLPRP the “shrunken log2 fold change” value was -0.335. For RRIRTRPPRLPRPRPRPWSGPRP, the “shrunken log2 fold change” value was -0.187. RRIRVRPPRLPRPRPRPKSNPRP was tested, and the “shrunken log2 fold change” value was -0.206. For RRIRTRPPRLPRPRPRPQCWPRP, the “shrunken log2 fold change” value was -0.19. With RRIRPRPPRLPRPRPRPNTVPRP the “shrunken log2 fold change” value was -0.411. RRIRWRPPRLPRPRPRPTAGPRP was tested, and the “shrunken log2 fold change” value was 0.965. RRIRERPPRLPRPRPRPWFMPRP was tested, and the “shrunken log2 fold change” value was -0.688. With RRIRGRPPRLPRPRPRPAHLPRP the “shrunken log2 fold change” value was 0.768. In the case of RRIRNRPPRLPRPRPRPTKRPRP, the “shrunken log2 fold change” value is reported as -0.301. For RRIRKRPPRLPRPRPRPWKYPRP, the “shrunken log2 fold change” value was -0.067. For RRIRDRPPRLPRPRPRPTMVPRP, the “shrunken log2 fold change” value was 0.028. In the case of RRIRSRPPRLPRPRPRPIWGPRP, the “shrunken log2 fold change” value is reported as 0.0936. For RRIRQRPPRLPRPRPRPCHKPRP, the “shrunken log2 fold change” value was 0.0524. With RRIRNRPPRLPRPRPRPIKAPRP the “shrunken log2 fold change” value was -0.0167. In the case of RRIRGRPPRLPRPRPRPCDPPRP, the “shrunken log2 fold change” value is reported as 0.228. RRIRTRPPRLPRPRPRPWGLPRP was tested, and the “shrunken log2 fold change” value was 0.00838. For RRIRPRPPRLPRPRPRPHVYPRP, the “shrunken log2 fold change” value was -0.552. In the case of RRIRDRPPRLPRPRPRPEQWPRP, the “shrunken log2 fold change” value is reported as -0.0491. For RRIRRRPPRLPRPRPRPRNFPRP, the “shrunken log2 fold change” value was 0.306. In the case of RRIRCRPPRLPRPRPRPPFAPRP, the “shrunken log2 fold change” value is reported as 0.455. For RRIRVRPPRLPRPRPRPGWGPRP, the “shrunken log2 fold change” value was 0.621. For RRIRIRPPRLPRPRPRPFASPRP, the “shrunken log2 fold change” value was -0.675. With RRIRCRPPRLPRPRPRPWWCPRP the “shrunken log2 fold change” value was -0.248. With RRIRIRPPRLPRPRPRPLQSPRP the “shrunken log2 fold change” value was -0.0353. In the case of RRIRKRPPRLPRPRPRPQFWPRP, the “shrunken log2 fold change” value is reported as 0.248. With RRIRARPPRLPRPRPRPEKAPRP the “shrunken log2 fold change” value was 0.046. With RRIRSRPPRLPRPRPRPFTIPRP the “shrunken log2 fold change” value was -0.0987. For RRIRHRPPRLPRPRPRPWDNPRP, the “shrunken log2 fold change” value was 0.0451. With RRIRHRPPRLPRPRPRPMCRPRP the “shrunken log2 fold change” value was -0.0487. In the case of RRIRFRPPRLPRPRPRPPNFPRP, the “shrunken log2 fold change” value is reported as -0.22. For RRIRPRPPRLPRPRPRPPILPRP, the “shrunken log2 fold change” value was -0.000706. For RRIRYRPPRLPRPRPRPNDCPRP, the “shrunken log2 fold change” value was -1.04. In the case of RRIRLRPPRLPRPRPRPMPMPRP, the “shrunken log2 fold change” value is reported as 0.0663. With RRIRIRPPRLPRPRPRPQVNPRP the “shrunken log2 fold change” value was -0.444. In the case of RRIRKRPPRLPRPRPRPPQCPRP, the “shrunken log2 fold change” value is reported as 0.26. In the case of RRIRNRPPRLPRPRPRPRSDPRP, the “shrunken log2 fold change” value is reported as 0.0587. With RRIRMRPPRLPRPRPRPEQSPRP the “shrunken log2 fold change” value was 3.19. In the case of RRIRCRPPRLPRPRPRPEEMPRP, the “shrunken log2 fold change” value is reported as 0.028. With RRIRGRPPRLPRPRPRPKYCPRP the “shrunken log2 fold change” value was 0.203. In the case of RRIRHRPPRLPRPRPRPHECPRP, the “shrunken log2 fold change” value is reported as -0.0277. In the case of RRIRCRPPRLPRPRPRPCDSPRP, the “shrunken log2 fold change” value is reported as -0.042. With RRIRYRPPRLPRPRPRPRQKPRP the “shrunken log2 fold change” value was 0.114. In the case of RRIRNRPPRLPRPRPRPYIWPRP, the “shrunken log2 fold change” value is reported as -0.588. With RRIRVRPPRLPRPRPRPMLEPRP the “shrunken log2 fold change” value was 0.0706. In the case of RRIRHRPPRLPRPRPRPILAPRP, the “shrunken log2 fold change” value is reported as 0.00463. RRIRCRPPRLPRPRPRPCPLPRP was tested, and the “shrunken log2 fold change” value was -0.433. For RRIRLRPPRLPRPRPRPDCKPRP, the “shrunken log2 fold change” value was 0.0852. With RRIRLRPPRLPRPRPRPIGVPRP the “shrunken log2 fold change” value was -0.0539. With RRIRTRPPRLPRPRPRPFREPRP the “shrunken log2 fold change” value was -0.0376. With RRIRPRPPRLPRPRPRPCCCPRP the “shrunken log2 fold change” value was 0.368. In the case of RRIRARPPRLPRPRPRPYLQPRP, the “shrunken log2 fold change” value is reported as -0.276. RRIRYRPPRLPRPRPRPWMVPRP was tested, and the “shrunken log2 fold change” value was -0.523. With RRIRRRPPRLPRPRPRPDCCPRP the “shrunken log2 fold change” value was 0.168. With RRIRMRPPRLPRPRPRPCICPRP the “shrunken log2 fold change” value was -0.0505. RRIRHRPPRLPRPRPRPNMCPRP was tested, and the “shrunken log2 fold change” value was -0.126. In the case of RRIRKRPPRLPRPRPRPGPVPRP, the “shrunken log2 fold change” value is reported as 0.531. For RRIRGRPPRLPRPRPRPHSPPRP, the “shrunken log2 fold change” value was 0.289. RRIRCRPPRLPRPRPRPPVRPRP was tested, and the “shrunken log2 fold change” value was 0.519. For RRIRYRPPRLPRPRPRPYYPPRP, the “shrunken log2 fold change” value was -0.293. In the case of RRIRFRPPRLPRPRPRPSQWPRP, the “shrunken log2 fold change” value is reported as -0.171. RRIRQRPPRLPRPRPRPSLKPRP was tested, and the “shrunken log2 fold change” value was -0.235. With RRIRTRPPRLPRPRPRPSMVPRP the “shrunken log2 fold change” value was -0.0429. RRIRHRPPRLPRPRPRPWWEPRP was tested, and the “shrunken log2 fold change” value was -0.015. With RRIRHRPPRLPRPRPRPTVIPRP the “shrunken log2 fold change” value was 0.0211. With RRIRDRPPRLPRPRPRPHHCPRP the “shrunken log2 fold change” value was -0.126. For RRIRRRPPRLPRPRPRPPKYPRP, the “shrunken log2 fold change” value was -0.14. In the case of RRIRWRPPRLPRPRPRPVCYPRP, the “shrunken log2 fold change” value is reported as 0.028. RRIRVRPPRLPRPRPRPWVPPRP was tested, and the “shrunken log2 fold change” value was -0.101. RRIRPRPPRLPRPRPRPHRVPRP was tested, and the “shrunken log2 fold change” value was 0.164. RRIRLRPPRLPRPRPRPEEMPRP was tested, and the “shrunken log2 fold change” value was 0.034. RRIRGRPPRLPRPRPRPAQRPRP was tested, and the “shrunken log2 fold change” value was 0.858. With RRIRQRPPRLPRPRPRPRMLPRP the “shrunken log2 fold change” value was -0.0148. In the case of RRIRRRPPRLPRPRPRPCAVPRP, the “shrunken log2 fold change” value is reported as 0.0527. In the case of RRIRSRPPRLPRPRPRPTKQPRP, the “shrunken log2 fold change” value is reported as 0.129. In the case of RRIRQRPPRLPRPRPRPVDHPRP, the “shrunken log2 fold change” value is reported as -0.335. With RRIRSRPPRLPRPRPRPEEGPRP the “shrunken log2 fold change” value was 0.0515. For RRIRTRPPRLPRPRPRPEKYPRP, the “shrunken log2 fold change” value was -0.156. For RRIRERPPRLPRPRPRPMLYPRP, the “shrunken log2 fold change” value was -0.222. RRIRWRPPRLPRPRPRPYICPRP was tested, and the “shrunken log2 fold change” value was -0.329. In the case of RRIRTRPPRLPRPRPRPHCWPRP, the “shrunken log2 fold change” value is reported as -0.0903. For RRIRMRPPRLPRPRPRPMSGPRP, the “shrunken log2 fold change” value was 0.858. In the case of RRIRRRPPRLPRPRPRPHGWPRP, the “shrunken log2 fold change” value is reported as 0.784. In the case of RRIRIRPPRLPRPRPRPNTRPRP, the “shrunken log2 fold change” value is reported as -0.507. RRIRKRPPRLPRPRPRPNTSPRP was tested, and the “shrunken log2 fold change” value was 0.0472. With RRIRERPPRLPRPRPRPKWCPRP the “shrunken log2 fold change” value was -0.0117. RRIRHRPPRLPRPRPRPEHKPRP was tested, and the “shrunken log2 fold change” value was 0.000824. With RRIRRRPPRLPRPRPRPPHIPRP the “shrunken log2 fold change” value was 0.655. For RRIRNRPPRLPRPRPRPQKYPRP, the “shrunken log2 fold change” value was 0.125. RRIRKRPPRLPRPRPRPCMAPRP was tested, and the “shrunken log2 fold change” value was 0.0448. RRIRLRPPRLPRPRPRPVACPRP was tested, and the “shrunken log2 fold change” value was 0.0944. In the case of RRIRNRPPRLPRPRPRPCERPRP, the “shrunken log2 fold change” value is reported as -0.00992. In the case of RRIRVRPPRLPRPRPRPYYHPRP, the “shrunken log2 fold change” value is reported as -0.877. For RRIRYRPPRLPRPRPRPVHKPRP, the “shrunken log2 fold change” value was -0.564. In the case of RRIRKRPPRLPRPRPRPETMPRP, the “shrunken log2 fold change” value is reported as 0.0612. For RRIRMRPPRLPRPRPRPRKGPRP, the “shrunken log2 fold change” value was 0.81. RRIRARPPRLPRPRPRPSLQPRP was tested, and the “shrunken log2 fold change” value was 0.193. With RRIRWRPPRLPRPRPRPMMAPRP the “shrunken log2 fold change” value was 0.452. With RRIRGRPPRLPRPRPRPRSVPRP the “shrunken log2 fold change” value was 0.662.
